In PMC6592559:
Ends that are not written are not given here.

Biological target: T1, PDF receptor (PDFR), endogenous in the insulin producing cells (Drosophila melanogaster (endogenous in fly brain)) (UniProt Q9W4Y2)
T1 sequence: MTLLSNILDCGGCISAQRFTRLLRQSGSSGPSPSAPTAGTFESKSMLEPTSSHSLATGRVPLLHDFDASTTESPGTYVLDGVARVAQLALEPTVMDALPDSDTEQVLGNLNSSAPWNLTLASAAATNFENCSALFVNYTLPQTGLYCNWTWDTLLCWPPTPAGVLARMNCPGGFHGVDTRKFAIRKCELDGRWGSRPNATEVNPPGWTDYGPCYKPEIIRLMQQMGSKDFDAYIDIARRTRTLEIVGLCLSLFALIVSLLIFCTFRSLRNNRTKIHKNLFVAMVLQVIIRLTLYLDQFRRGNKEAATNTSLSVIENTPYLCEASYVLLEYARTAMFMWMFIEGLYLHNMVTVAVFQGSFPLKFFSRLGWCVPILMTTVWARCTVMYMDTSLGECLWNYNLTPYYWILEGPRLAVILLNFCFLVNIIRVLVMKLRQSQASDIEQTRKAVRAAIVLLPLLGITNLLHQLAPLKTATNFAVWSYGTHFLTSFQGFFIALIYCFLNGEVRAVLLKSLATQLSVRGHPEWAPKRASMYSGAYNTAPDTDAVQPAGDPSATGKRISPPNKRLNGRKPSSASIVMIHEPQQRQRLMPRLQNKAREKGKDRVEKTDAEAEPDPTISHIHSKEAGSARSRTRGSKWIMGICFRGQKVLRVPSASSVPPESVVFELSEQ

cAMP FRET signal (Epac1camps) in the IPCs of dissected brains, 10 uM PDF bath-applied, 100-1000 s, against the HL3 negative control; no increase in the PDFR-null han mutant: 10%
B1: Pigment Dispersing Factor (PDF), synthetic peptide (peptide)
peptide: NSELINSLLSLPKNMNDA-NH2
